Measured values reported in the supplement of paper PMC10567573.
± gives the standard deviation.

Assay: protein stability index of a GFP-peptide fusion (GPS, HEK-293T) (PSI 1-6); higher = more stable
Settings: c terminus: a fixed tail appended
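Further: 24-mer peptide tiles fused after GFP, lentivirally expressed, FACS-sorted into six equal bins by GFP/DsRed ratio, decoded by Illumina sequencing, PSI is the read-weighted mean bin number.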

Sequence | protein stability index (treatment: DMSO) | protein stability index (treatment: MLN4924 1 uM, 8 h)
NRPLSLKDQQTFARSVGLKWRKVG [TRADD] | 3.03 ± 0.15 | 3.17 ± 0.11
NRYGDVPCLDQTRVKLTKRSGHTQ [PTPN9] | 3.96 ± 0.4 | 4.36 ± 0.26
NSHLTSVPHWINSNTLGFGTEQAP [ETS2] | 3.42 ± 0.15 | 3.45 ± 0.21
NSPGAYRSHPDNAIPIKSWFSDPS [CTDNEP1] | 3.37 ± 0.23 | 3.4 ± 0.12
NSVNDQTKILVVNAAYFVGKWMKK [SERPINB5] | 2.3 ± 0.26 | 2.48 ± 0.5
NTFVRYLLKRIKKCCGMRNTDVSM [KCNK9] | 3.38 ± 0.59 | 3 ± 0.35
NVHATTATGDTALTYACENGHTDV [ANKRD17] | 4.82 ± 0.33 | 4.88 ± 0.19
NVRDRDSGRNGEVSLDISPDLPFQ [PCDHGC5] | 4.76 ± 0.42 | 4.59 ± 0.22
NWIELLSGETWNPLKLHYQLRNVR [GOLPH3] | 2.43 ± 0.73 | 2.36 ± 0.61
NWTVAFAPDGSYFAWSQGHRTVKL [WSB1] | 2.42 ± 0.53 | 2.47 ± 0.44
NYECNLYTFLYLVCISTKTQCSEE [FEM1B] | 3.11 ± 0.38 | 2.81 ± 0.4
PADIQAQFAISRELIRNIYNSFHK [SNX8] | 2.04 ± 0.29 | 2.24 ± 0.3
PADPTGNLGGGDPKGWRQLAQEAE [OAS1] | 5.17 ± 0.19 | 4.97 ± 0.18
PAGGLAPGGGRGALLDQIRQGIQL [WAS] | 4.7 ± 0.19 | 4.54 ± 0.76
PAPEAESKQTEKDPGVQELEALID [EFHC1] | 5.51 ± 0.2 | 5.57 ± 0.17
PAYKVSGDKNEEQVLNAIEAYTEH [ZER1] | 5.06 ± 0.17 | 5.02 ± 0.17
PCAAAREGRLERRECGLAAPRFSF [IRX6] | 3.01 ± 0.21 | 2.89 ± 0.4
PDFPSINMDPAGLDDEDDTSIGMP [RETREG3] | 5.49 ± 0.18 | 5.53 ± 0.11
PFSECGEAVSDSTPFLTNHGAHKA [ZNF263] | 4.76 ± 0.24 | 4.93 ± 0.32
PFVCPECGQPCSQKSGLIRHQKIH [ZNF649] | 4.65 ± 0.3 | 4.78 ± 0.3
PGEQGGGKLVLSSLPKRLCLVCGD [ESRRA] | 2.79 ± 0.19 | 3.25 ± 0.29
PGPASGPGPDTGPDSELSPCIPPG [SPAG8] | 5.4 ± 0.24 | 5.36 ± 0.24

Sequence | protein stability index (treatment: DMSO) | protein stability index (treatment: MLN4924 1 uM, 8 h)
PGVFVLLACGTMSSTCGQLASYPL [SLC25A25] | 3.18 ± 0.3 | 2.66 ± 0.61
PHSAKTEEHTTILRPSYTGLSSSS [CDC14A] | 4.4 ± 0.33 | 4.58 ± 0.2
PIFVNSPTLDAPGGRALVVRKVPP [SMAD6] | 3.23 ± 0.059 | 3.34 ± 0.29
PILRLLPQGISPVSQHWATWALYN [ZER1] | 2.78 ± 0.37 | 2.95 ± 0.34
PISEKAKDLILRFCIDSENRIGNS [STK38L] | 2.04 ± 0.47 | 2.05 ± 0.41
PKPCAGNQGTQITVEDLFYNIATR [MLH1] | 2.85 ± 0.32 | 2.97 ± 0.41
PLFEDVQMLRKTVKDEAHQAQKDP [PPP2R5C] | 5.37 ± 0.22 | 5.3 ± 0.17
PLGSPSPRPRRAKRFASLSRFVET [ADAMTS4] | 3.5 ± 0.28 | 3.41 ± 0.21
PLHNSGLLSLDPVQDKTPLYSQLL [MED27] | 2.76 ± 0.27 | 2.92 ± 0.34
PMYFFLGNLSVLDVGCISVTVPSM [OR3A1] | 2.65 ± 0.52 | 3.06 ± 0.65
PPARGTLKTSNLPEELRKVFITYS [TRAF3IP2] | 2.53 ± 0.37 | 2.53 ± 0.12
PPDKGEEQVNFCESSNDFGPYEGG [ZBTB22] | 5.53 ± 0.098 | 5.41 ± 0.26
PPGSHLLYAKMIQKLADLRSLNEE [VDR] | 2.61 ± 0.11 | 2.67 ± 0.25
PPPKTNLTPGQSDSAKREVKQKIS [FAN1] | 5.44 ± 0.24 | 5.35 ± 0.094
PPPSRPSVAVPPPPPNRMYPPPPP [WASL] | 4.48 ± 0.2 | 4.49 ± 0.2
PPSARHRAHPPQRPASSGGAHTLV [KCNA3] | 4.06 ± 0.42 | 4.1 ± 0.45
PPTTPQNEEIRAVGRLKRERSMSE [MFF] | 4.82 ± 0.28 | 5.05 ± 0.14
PRAVFVLLEERRPADSAQLLSLNS [TFE3] | 2.29 ± 0.12 | 2.4 ± 0.2
PSETGNTFVSGGCDKKAMVWDMRS [GNB5] | 3.93 ± 0.16 | 3.75 ± 0.26
PSFCPVQPCFFQDISMEIPQEFQK [SCAMP3] | 3.64 ± 0.35 | 3.69 ± 0.21
PTDYQVNIQIIEYEKKQTLGQNDT [BTBD1] | 3.76 ± 0.27 | 3.91 ± 0.13
PTGRLPALVRWWNGIGAVLDFTHP [MYORG] | 2.15 ± 0.28 | 2.14 ± 0.033

Sequence | protein stability index (treatment: DMSO) | protein stability index (treatment: MLN4924 1 uM, 8 h)
PVSLSASQSWHTESLPVSLGPESW [BCL2L13] | 3.37 ± 0.26 | 3.21 ± 0.11
PVTKPLFPSAGQAQAAVQGPVGTD [ZNF207] | 5.15 ± 0.17 | 5.05 ± 0.11
PYSFIEFDTFIQKTKKLYIDSRAR [SEC22B] | 2.38 ± 0.12 | 2.41 ± 0.25
QALRRLRPRTRKVKSVSPQGNSVD [NCF4] | 4.32 ± 0.46 | 4.63 ± 0.26
QAPPQDSSNKKEKKVLNHGYDDDN [DYRK1B] | 5.61 ± 0.16 | 5.51 ± 0.11
QAREKELLELQSQQACTHTKETEQ [CCDC89] | 5.55 ± 0.21 | 5.61 ± 0.17
QASSERLGLDNRLFGHPGLDMELG [ADAMTSL2] | 3.87 ± 0.12 | 4.02 ± 0.5
QATCNVHKSAFNDWFSGHLNFQIE [FADS1] | 2.44 ± 0.28 | 2.48 ± 0.2
QCRHTLEQHNWNIEAAVQDRLNEQ [FAF2] | 3.89 ± 0.17 | 3.87 ± 0.18
QDHFHVFVGDLSPEITTEDIKAAF [TIA1] | 2.73 ± 0.54 | 3 ± 0.33
QDLLKERQKDLKFLSEEEYWKLQI [CCNC] | 3.45 ± 0.13 | 3.67 ± 0.15
QELDIKKNERLWLLDDSKTWWRVR [NCK2] | 2.37 ± 0.14 | 2.61 ± 0.28
QEPMVPAKLGTQAEKDRRLKKKHQ [PPFIA4] | 5.32 ± 0.42 | 5.56 ± 0.11
QEQNGRLQAELAAQEALREKAAAL [LRRC45] | 5.25 ± 0.21 | 5.31 ± 0.28
QETLTNISAVNYDFDEEYFSNTSE [DAPK3] | 5.41 ± 0.26 | 5.41 ± 0.21
QFCAQRFGRKDHLTRHTKKTHSQE [PLAGL1] | 4.07 ± 0.43 | 4.18 ± 0.27
QFLFIYQLPFCGPNVIDNFLCDLY [OR4A15] | 3.04 ± 0.11 | 2.86 ± 0.38
QFPYVEFTGRDSITCLTCQGTGYI [TMEM106C] | 2.93 ± 0.47 | 3.09 ± 0.52
QGDPAFPEMNGNGAVAPMDFTTAA [NOL4L] | 5.09 ± 0.2 | 4.98 ± 0.16
QGKYECVATNSAGTRYSAPANLYV [PTPRD] | 2.9 ± 0.22 | 2.89 ± 0.64
QGMEGIKVFLHERELWLKFHEVGT [TBX5] | 2.2 ± 0.14 | 2.17 ± 0.23
